In article PMC6441084 one finds MT-polymerization (turbidity data, which are given here for one substance.

The target of the experiment is microtubules (MTs) polymerised from purified tubulin (Cytoskeleton, # T240) (UniProt P02550).

“Diaph2 mutant lacking the FH2-domain (ΔFH2-Diaph2), GST-fusion protein (from UniProt O60879 1-1101) (natural protein)”: the MT-polymerization (turbidity at 340 nm, no taxol; 2 µM tubulin, 0.2 µM Diaph2 protein), fold against the control stood at 6 fold.
